Test [1] concerns the target S. venezuelae ParB_(SMC-) variant (TDR 132-134 to AAT, D164R) (S. venezuelae). The note with it: scale: μmol of phosphate released by 1 μmol of ParB in one hour.
For test [2], the target named is S. venezuelae ParB (wild type, recombinant, cleaved from GST) (S. venezuelae). To be noted: scale: μmol of phosphate released by 1 μmol of ParB in one hour.

This is an account of results in article PMC12511625.

With “FLAG-SMC of S. venezuelae (natural protein)”, the CTP hydrolysis (phosphate released) by ParB (SMC-) (2 μM) with parS-containing plasmid DNA and FLAG-SMC (1:100 molar ratio); without FLAG-SMC 46.7 +/− 3.9; said to be similar with and without SMC in test [1] amounted to 39. Besides, in test [2], the CTP hydrolysis (phosphate released) by ParB (2 μM) with parS-containing plasmid DNA and FLAG-SMC (0.02 μM, 1:100 molar ratio); without FLAG-SMC 65.1 +/− 2.9 is 35.2.
